From patent EP1536230A1, “Flow cytometric, particle-based binding assay” (Deutsches Rheuma-Forschungszentrum Berlin, priority 2003, dated 2005)
Where no end group is shown, it is not given here. The star is where a group is joined. Biotin = O=C1N[C@H]2[C@H](CS[C@H]2CCCCC(=O)*)N1

Columns and labels:
[1] = target: T1, Rekombinantes menschliches CaN (Homo sapiens, UniProt Q08209); test: Flow cytometric, particle-based binding assay: FITC-CaN bound via biotinylated peptide to streptavidin beads; conditions: FITC-CaN (25 nM), versus control without peptide; for mittlere Fluoreszenzintensität (Bindung von FITC-CaN über NFAT-B-Peptid an Beads): biot-NFAT-B-Peptid (4µM); for mittlere Fluoreszenzintensität (Bindung von FITC-CaN über biotinyliertes Peptid an Beads): biot-VIVIT-Peptid (300 nM), Streptavidin-Beads (50000)
T1 construct: made in house; host or cells: E. coli
Description: Der Assaypuffer war wie folgt zusammengesetzt: 25mM Tris/HCl, 3mM MgCl2, 1mM EGTA, 0,5mM DTT oder TCEP, pH 7,4. Wenn nicht anders angegeben, wurde der Assaypuffer noch mit 0,05% BSA (PAA laboratories) versetzt.
Rekombinantes menschliches CaN wurde in Boratpuffer aufgenommen und mit FITC (Sigma) in einem molaren Verhältnis von 1:12 für 1h auf Eis und vor Licht geschützt inkubiert. Das ungebundenen FITC wurde dann über eine PD10 Säule (Amersham-Pharmacia) abgetrennt.
NFAT-B Peptid (4 µM) für 10 min lichtgeschützt auf Eis inkubierte, wurden 50000 beads in 10 µl Asaypuffer pipettiert. Nach weiteren 10 min Inkubation wurde das Reaktionsgemisch (110 µl) im Durchflusszytometer "FacsCalibur" (BD Biosciences) gemessen. […] Assay vorgeschaltet. Dafür wurde 1 µl Inhibitor (in DMSO) zu FITC-CaN in Assaypuffer (94 µl) pipettiert und anschließend für 30 min lichtgeschützt auf Eis belassen. Die Auswertung der Meßdaten erfolgte mit der Software CellQuest (BD Biosciences).

FITC-Ovalbumin = target: T2, FITC-Ovalbumin (Gallus gallus, UniProt P01012); test: Flow cytometric, particle-based binding assay with control protein FITC-Ovalbumin (specificity); conditions: FITC-Ovalbumin (25 nM); biot-VIVIT-Peptid (300 nM)
T2 construct: purchased Sigma
T2 sequence (P01012 1-386): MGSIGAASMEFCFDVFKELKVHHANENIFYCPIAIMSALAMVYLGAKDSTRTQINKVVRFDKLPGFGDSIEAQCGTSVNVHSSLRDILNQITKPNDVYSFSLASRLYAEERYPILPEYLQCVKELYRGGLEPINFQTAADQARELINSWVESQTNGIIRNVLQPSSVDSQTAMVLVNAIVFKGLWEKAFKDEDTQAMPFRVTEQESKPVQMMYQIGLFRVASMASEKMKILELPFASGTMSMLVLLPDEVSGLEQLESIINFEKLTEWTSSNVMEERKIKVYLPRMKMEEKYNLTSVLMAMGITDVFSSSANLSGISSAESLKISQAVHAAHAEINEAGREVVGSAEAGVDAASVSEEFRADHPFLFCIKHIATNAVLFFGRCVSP

Substance	mittlere Fluoreszenzintensität (Bindung von FITC-CaN über NFAT-B-Peptid an Beads) ([1]; mit Ca2+/Calmodulin)	mittlere Fluoreszenzintensität (Bindung von FITC-CaN über NFAT-B-Peptid an Beads) ([1]; ohne Ca2+/Calmodulin)	Fluoreszenzintensität (Bindung des Kontrollproteins FITC-Ovalbumin) (FITC-Ovalbumin)	mittlere Fluoreszenzintensität (Bindung von FITC-CaN über biotinyliertes Peptid an Beads) [1]	mittlere Fluoreszenzintensität (Bindung von FITC-CaN über biotinyliertes Peptid an Beads) ([1]; listed as biot-TIVIV-Peptid)
KGGFCDQYLAVPQHPYQWAK [biot-NFAT-B-Peptid]	höhere mittlere Fluoreszenzintensität	höhere mittlere Fluoreszenzintensität			
GGRRKRSESSKQQKPLE [AKAP79]			bindet	bindet	
biotinyl-EEHPGTIVIVPHPGAMG (Biotin-EEHPGTIVIVPHPGAMG) [biot-TIVIV]				nicht mit biot-TIVIV eine erhöhte Fluoreszenzintensität	keine erhöhte Fluoreszenzintensität
